The text below walks through data of PMC5613972, “A specific single-stranded DNA induces a distinct conformational change in the nucleoid-associated protein HU”.

T1: TtHU (Thermus thermophilus, UniProt P19436 2-97)
T1 sequence: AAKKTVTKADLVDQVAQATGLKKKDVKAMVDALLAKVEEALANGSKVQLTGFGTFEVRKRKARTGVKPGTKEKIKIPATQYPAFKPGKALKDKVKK

B1: oligo CD (dsDNA)
DNA 1: ATGACAACTAAAGCAACACCCAAAACA
DNA 2: TGTTTTGGGTGTTGCTTTAGTTGTCAT
B2: oligo AB (dsDNA)
DNA 1: GGCCCCAGTGCTGCAATGATACCGCGAGAC
DNA 2: GTCTCGCGGTATCATTGCAGCACTGGGGCC

The first data set addresses T1, TtHU. Description: EMSA; 1 uM DNA; EMSA: 20 mM Tris-HCl pH 7.5, 100 mM KCl, 37 °C, 1 h; CD: 20 mM phosphate pH 7.2, 100 mM KCl, 20 °C, 10 uM TtHU. To be noted: protein: recombinant; tags: none stated (pET-11a); chain copies: 2; duplex of complementary oligos. For orientation: A gel shift assay detects complexes by their altered migration in electrophoresis.
In the case of B1, the binding result is listed as “binds”.

With B2, the binding result is “binds”.

The data set is the same for the next values; noted with them: protein: recombinant; tags: none stated (pET-11a); chain copies: 2; single strand.
Consider GGCCCCAGTGCTGCAATGATACCGCGAGAC (ssDNA) [oligo A], for which the binding result was “binds”. On the same count and under the same terms, the same measure for GTCTCGCGGTATCATTGCAGCACTGGGGCC (ssDNA) [oligo B]: “binds”; for ATGACAACTAAAGCAACACCCAAAACA (ssDNA) [oligo C]: “binds”.

For the molecule TGTTTTGGGTGTTGCTTTAGTTGTCAT (ssDNA) [oligo D], the binding result is recorded as “binds”.
